{
  "source": "patent US20050064507",
  "key": {"[1]": {"system": "T1, peptide ARIIGEKSFRRSVVG (SEQ ID NO:47)", "T1 sequence": "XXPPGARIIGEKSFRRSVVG"}, "[2]": {"system": "T2, peptide DGQKRKKSLRKKLD (SEQ ID NO:16)", "T2 sequence": "XXPPGDGQKRKKSLRKKLD"}, "[3]": {"system": "T3, ubiquitin specific protease 8 peptide RARRDSLKKIEIW (SEQ ID NO:136)", "T3 sequence": "RARRDSLKKIEIW"}, "[4]": {"system": "T4, peptide EKIKRSSLKKVDSLKK (SEQ ID NO:24)", "T4 sequence": "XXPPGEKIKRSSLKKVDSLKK"}, "[5]": {"system": "T5, peptide RRRQKRRTGALVLSRGGKR (SEQ ID NO:71)", "T5 sequence": "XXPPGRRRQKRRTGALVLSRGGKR"}, "[6]": {"system": "T6, LIMK2 peptide KATTKKRTLRKNDRK (SEQ ID NO:108)", "T6 sequence": "KATTKKRTLRKNDRK"}, "[7]": {"system": "T7, CREB peptide VTDSQKRREILSRRPSYPKI (SEQ ID NO:141)", "T7 sequence": "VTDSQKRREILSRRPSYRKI"}, "[8]": {"system": "T8, Urotensin-2 receptor peptide LYARLARAYRRSQRASFKRA (SEQ ID NO:159)", "T8 sequence": "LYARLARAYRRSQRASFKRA"}, "[9]": {"system": "T9, peptide LTDPKEDPIYDEPEGLAPVPG (SEQ ID NO:72)", "T9 sequence": "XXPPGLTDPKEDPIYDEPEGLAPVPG"}, "[10]": {"system": "T10, peptide RKKRKKKSSKSLAHAGVALA (SEQ ID NO:31)", "T10 sequence": "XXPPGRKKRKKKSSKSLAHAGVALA"}, "[11]": {"system": "T11, peptide AINSRETMFHKERFK (SEQ ID NO:67)", "T11 sequence": "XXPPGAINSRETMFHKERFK"}, "[12]": {"system": "T12, peptide QRQERIFSKRRGQDF (SEQ ID NO:63)", "T12 sequence": "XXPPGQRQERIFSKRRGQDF"}, "[13]": {"system": "T13, peptide AGWRKKTSFRKPKED (SEQ ID NO:17)", "T13 sequence": "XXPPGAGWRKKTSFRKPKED"}, "[14]": {"system": "T14, peptide RVKLGTLRRPEGP (SEQ ID NO:58)", "T14 sequence": "XXPPGRVKLGTLRRPEGP"}, "[15]": {"system": "T15, phospholemman peptide EEGTFRSSIRRLSTRRR (SEQ ID NO:116)", "T15 sequence": "EEGTFRSSIRRLSTRRR"}, "[16]": {"system": "T16, dag kinase iota peptide NRKKKRTSFKRKA (SEQ ID NO:115)", "T16 sequence": "NRKKKRTSFKRKA"}, "[17]": {"system": "T17, peptide KATTKKRTLRKNDRK (SEQ ID NO:32)", "T17 sequence": "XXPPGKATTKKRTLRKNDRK"}, "[18]": {"system": "T18, NEURL peptide ALRRPSLRREADD (SEQ ID NO:105)", "T18 sequence": "ALRRPSLRREADD"}, "[19]": {"system": "T19, peptide VFREHQRSGSYHVRE (SEQ ID NO:45)", "T19 sequence": "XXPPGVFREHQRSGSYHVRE"}, "[20]": {"system": "T20, peptide EYLERRASRRRAV (SEQ ID NO:14)", "T20 sequence": "XXPPGEYLERRASRRRAV"}, "[21]": {"system": "T21, MGC2941 peptide RPTPGDGEKRSRIKKSKKRK (SEQ ID NO:139)", "T21 sequence": "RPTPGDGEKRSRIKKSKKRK"}, "[22]": {"system": "T22, peptide HVRRRRGTFKRSKLRARD (SEQ ID NO:1)", "T22 sequence": "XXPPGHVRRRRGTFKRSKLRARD"}, "[23]": {"system": "T23, peptide LLKKRDSFRTPRDSKLE (SEQ ID NO:22)", "T23 sequence": "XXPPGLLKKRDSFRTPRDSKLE"}, "[24]": {"system": "T24, KCNH2 peptide RQRKRKLSFRRRTDKD (SEQ ID NO:86)", "T24 sequence": "RQRKRKLSFRRRTDKD"}, "[25]": {"system": "T25, peptide VDNILKKSNKKLEEL (SEQ ID NO:61)", "T25 sequence": "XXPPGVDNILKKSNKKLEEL"}, "[26]": {"system": "T26, NIK peptide WKGKRRSKARKKRK (SEQ ID NO:131)", "T26 sequence": "WKGKRRSKARKKRK"}, "[27]": {"system": "T27, PLD1 peptide KYKAFIRIPIPTRRHTFRRQ (SEQ ID NO:161)", "T27 sequence": "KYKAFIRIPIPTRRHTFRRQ"}, "[28]": {"system": "T28, cytohesin-2 peptide VDPFYEMLAARKKRISVKKK (SEQ ID NO:150)", "T28 sequence": "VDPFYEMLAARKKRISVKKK"}, "[29]": {"system": "T29, PARIS1 peptide EYLERRASRRRAV (SEQ ID NO:130)", "T29 sequence": "EYLERRASRRRAV"}, "[30]": {"system": "T30, HERG peptide TELEGGFSRQRKRKLSFRRR (SEQ ID NO:140)", "T30 sequence": "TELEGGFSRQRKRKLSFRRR"}, "[31]": {"system": "T31, peptide EEAEHKATKARLADK (SEQ ID NO:75)", "T31 sequence": "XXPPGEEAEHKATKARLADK"}, "[32]": {"system": "T32, MARCKS peptide PSPSNETPKKKKKRFSFKKS (SEQ ID NO:157)", "T32 sequence": "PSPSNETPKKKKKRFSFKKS"}, "[33]": {"system": "T33, peptide PRLIRRGSKKRPAR (SEQ ID NO:6)", "T33 sequence": "XXPPGPRLIRRGSKKRPAR"}, "[34]": {"system": "T34, MLK3 peptide QQVDRERPHVRRRRGTFKRS (SEQ ID NO:128)", "T34 sequence": "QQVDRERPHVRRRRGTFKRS"}, "[35]": {"system": "T35, EBNA1BP2 peptide KRPGKKGSNKRPGKR (SEQ ID NO:112)", "T35 sequence": "KRPGKKGSNKRPGKR"}, "[36]": {"system": "T36, NR4A3 peptide KEVVRTDSLKGRRGR (SEQ ID NO:109)", "T36 sequence": "KEVVRTDSLKGRRGR"}, "[37]": {"system": "T37, ADD2 peptide KKKFRTPSFLKKSKK (SEQ ID NO:95)", "T37 sequence": "KKKFRTPSFLKKSKK"}, "[38]": {"system": "T38, pkc-zeta peptide GLPAPGEDKSIYRRGSRRWR (SEQ ID NO:167)", "T38 sequence": "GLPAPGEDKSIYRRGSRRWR"}, "[39]": {"system": "T39, MARCKS peptide KKRFSFKKSFKLSGFSFKKN (SEQ ID NO:119)", "T39 sequence": "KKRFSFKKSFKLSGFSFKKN"}},
  "data": [
    {"substance": "PKC-delta", "values": [
      {"measurement": "in vitro phosphorylation (% of best substrate)", "setting": "[1]", "value": 2},
      {"measurement": "in vitro phosphorylation (% of best substrate)", "setting": "[2]", "value": 17},
      {"measurement": "in vitro phosphorylation, 1 uM peptide (% of best substrate)", "setting": "[3]", "value": 41},
      {"measurement": "in vitro phosphorylation, 10 uM peptide (% of best substrate)", "setting": "[3]", "value": 23},
      {"measurement": "in vitro phosphorylation (% of best substrate)", "setting": "[4]", "value": 10},
      {"measurement": "in vitro phosphorylation (% of best substrate)", "setting": "[5]", "value": 1},
      {"measurement": "in vitro phosphorylation (% of best substrate)", "setting": "[6]", "value": 6},
      {"measurement": "in vitro phosphorylation, 1 uM peptide (% of best substrate)", "setting": "[7]", "value": 43},
      {"measurement": "in vitro phosphorylation, 10 uM peptide (% of best substrate)", "setting": "[7]", "value": 21},
      {"measurement": "in vitro phosphorylation, 1 uM peptide (% of best substrate)", "setting": "[8]", "value": 15},
      {"measurement": "in vitro phosphorylation, 10 uM peptide (% of best substrate)", "setting": "[8]", "value": 12},
      {"measurement": "in vitro phosphorylation (% of best substrate)", "setting": "[9]", "value": 0},
      {"measurement": "in vitro phosphorylation (% of best substrate)", "setting": "[10]", "value": "> 5"},
      {"measurement": "in vitro phosphorylation (% of best substrate)", "setting": "[11]", "value": 1},
      {"measurement": "in vitro phosphorylation (% of best substrate)", "setting": "[12]", "value": 1},
      {"measurement": "in vitro phosphorylation (% of best substrate)", "setting": "[13]", "value": 17},
      {"measurement": "in vitro phosphorylation (% of best substrate)", "setting": "[14]", "value": 1},
      {"measurement": "in vitro phosphorylation, 1 uM peptide (% of best substrate)", "setting": "[15]", "value": 75},
      {"measurement": "in vitro phosphorylation, 10 uM peptide (% of best substrate)", "setting": "[15]", "value": 41},
      {"measurement": "in vitro phosphorylation, 1 uM peptide (% of best substrate)", "setting": "[16]", "value": 94},
      {"measurement": "in vitro phosphorylation, 10 uM peptide (% of best substrate)", "setting": "[16]", "value": 99},
      {"measurement": "in vitro phosphorylation (% of best substrate)", "setting": "[17]", "value": "> 5"},
      {"measurement": "in vitro phosphorylation (% of best substrate)", "setting": "[18]", "value": 9},
      {"measurement": "in vitro phosphorylation (% of best substrate)", "setting": "[19]", "value": 2},
      {"measurement": "in vitro phosphorylation (% of best substrate)", "setting": "[20]", "value": 20},
      {"measurement": "in vitro phosphorylation, 1 uM peptide (% of best substrate)", "setting": "[21]", "value": 31},
      {"measurement": "in vitro phosphorylation, 10 uM peptide (% of best substrate)", "setting": "[21]", "value": 24},
      {"measurement": "in vitro phosphorylation (% of best substrate)", "setting": "[22]", "value": 100},
      {"measurement": "in vitro phosphorylation (% of best substrate)", "setting": "[23]", "value": 12},
      {"measurement": "in vitro phosphorylation (% of best substrate)", "setting": "[24]", "value": 42},
      {"measurement": "in vitro phosphorylation (% of best substrate)", "setting": "[25]", "value": 1},
      {"measurement": "in vitro phosphorylation, 1 uM peptide (% of best substrate)", "setting": "[26]", "value": 38},
      {"measurement": "in vitro phosphorylation, 10 uM peptide (% of best substrate)", "setting": "[26]", "value": 29},
      {"measurement": "in vitro phosphorylation, 1 uM peptide (% of best substrate)", "setting": "[27]", "value": 22},
      {"measurement": "in vitro phosphorylation, 10 uM peptide (% of best substrate)", "setting": "[27]", "value": 14},
      {"measurement": "in vitro phosphorylation, 1 uM peptide (% of best substrate)", "setting": "[28]", "value": 34},
      {"measurement": "in vitro phosphorylation, 10 uM peptide (% of best substrate)", "setting": "[28]", "value": 20},
      {"measurement": "in vitro phosphorylation, 1 uM peptide (% of best substrate)", "setting": "[29]", "value": 46},
      {"measurement": "in vitro phosphorylation, 10 uM peptide (% of best substrate)", "setting": "[29]", "value": 20},
      {"measurement": "in vitro phosphorylation, 1 uM peptide (% of best substrate)", "setting": "[30]", "value": 44},
      {"measurement": "in vitro phosphorylation, 10 uM peptide (% of best substrate)", "setting": "[30]", "value": 49},
      {"measurement": "in vitro phosphorylation (% of best substrate)", "setting": "[31]", "value": 0},
      {"measurement": "in vitro phosphorylation, 1 uM peptide (% of best substrate)", "setting": "[32]", "value": 27},
      {"measurement": "in vitro phosphorylation, 10 uM peptide (% of best substrate)", "setting": "[32]", "value": 35},
      {"measurement": "in vitro phosphorylation (% of best substrate)", "setting": "[33]", "value": 40},
      {"measurement": "in vitro phosphorylation, 1 uM peptide (% of best substrate)", "setting": "[34]", "value": 46},
      {"measurement": "in vitro phosphorylation, 10 uM peptide (% of best substrate)", "setting": "[34]", "value": 57},
      {"measurement": "in vitro phosphorylation (% of best substrate)", "setting": "[35]", "value": 8},
      {"measurement": "in vitro phosphorylation (% of best substrate)", "setting": "[36]", "value": 7},
      {"measurement": "in vitro phosphorylation (% of best substrate)", "setting": "[37]", "value": 25},
      {"measurement": "in vitro phosphorylation, 1 uM peptide (% of best substrate)", "setting": "[38]", "value": 13},
      {"measurement": "in vitro phosphorylation, 10 uM peptide (% of best substrate)", "setting": "[38]", "value": 24},
      {"measurement": "in vitro phosphorylation, 1 uM peptide (% of best substrate)", "setting": "[39]", "value": 42},
      {"measurement": "in vitro phosphorylation, 10 uM peptide (% of best substrate)", "setting": "[39]", "value": 16}
    ]}
  ]
}
